Patent US20080044405A1 (Harvard, published 2008)

Experiments:
[1] = molecular target: T1, HLA-DR1 (soluble, produced by Drosophila S2 cell lines) (human); assay: fluorescence polarization, DR1-CLIP-AlexaFluor488 0.1 uM at 37 C in the presence of 100 uM K2PtCl4, no DM, no excess HA peptide
[2] = molecular target: T1, HLA-DR1 (soluble, produced by …); assay: fluorescence polarization, DR1-CLIP-AlexaFluor488 0.1 uM at 37 C in the presence of 100 uM KAuCl4, no DM, no excess HA peptide
[3] = molecular target: T1, HLA-DR1 (soluble, produced by …); assay: fluorescence polarization, DR1-CLIP-AlexaFluor488 0.1 uM at 37 C without DM, with excess unlabeled HA peptide (100 uM), no metal (intrinsic dissociation)
[4] = molecular target: T1, HLA-DR1 (soluble, produced by …); assay: fluorescence polarization, DR1-CLIP-AlexaFluor488 0.1 uM at 37 C with DM (0.1 uM) and excess unlabeled HA peptide (100 uM), no metal
[5] = molecular target: T1, HLA-DR1 (soluble, produced by …); assay: fluorescence polarization, DR1-CLIP-AlexaFluor488 0.1 uM at 37 C in the presence of 100 uM cisplatin, no DM, no excess HA peptide
[6] = molecular target: T1, HLA-DR1 (soluble, produced by …); assay: fluorescence polarization, DR1-CLIP-AlexaFluor488 0.1 uM at 37 C in the presence of 100 uM K2PdCl4, no DM, no excess HA peptide

t1/2 of CLIP dissociation [1]: 3.05 h | t1/2 of CLIP dissociation [2]: 2.76 h | t1/2 of CLIP dissociation [3]: 94.6 h | t1/2 of CLIP dissociation [4]: 8.66 h | t1/2 of CLIP dissociation [5]: 4.34 h | t1/2 of CLIP dissociation [6]: 1.59 h
B1: Alexa-Fluor 488-labeled CLIP peptide (peptide)
peptide: CPVSKMRMATPLLMQA
modifications: Cys labelled with AlexaFluor 488 C5 maleimide
notes: an N-terminal Cys is added to CLIP(87-101); also called af-CLIP; CLIP-AlexaFluor488
